Results from patent US11072647B2, “TGF-receptor II isoform, fusion peptide, methods of treatment and methods in vitro” (Onsejo Nacional DE Investigation Cientiticay Tecnica, priority 2013, dated 2021).

How the values were obtained:
[1] = test system: TβRII receptors (TβRII-A, TβRII-B and TβRII-SE) mRNA in hASCs; test: RT-PCR / qRT-PCR of TβRII isoform mRNA in transduced hASC; format: cell-based, human
Protocol: To further assess the agonistic role of the TβRII-SE isoform, hASCs were transduced with Lt-TβRII-SE, Lt-TβRIIA-DN, and Lt.eGFP, at an MOI of 150 as described in the examples. Seventy two hours after transduction the percentage of eGFP expressing cells was measured by flow cytometry (FIG. 11A).
mRNA levels of all three isoforms of Type II TGF-β receptor were also quantified by qRT-PCR (FIG. 13).
Total RNA from different primary cultures and cell lines was isolated using the Absolutely RNA kit (Stratagene, La Jolla, Calif., USA). First-strand cDNA was synthesized by mixing 1 μg of DNA free total RNA, 50 pmol primer p(DT)15 (Roche Diagnostics GmbH, Mannheim, Germany), 0.5 mM deoxyribonucleotide triphosphate, 5 mM dithiothreitol, and 1 U Expand Reverse Transcriptase (Roche Diagnostics GmbH). cDNA corresponding to different isoforms of TβRII receptor was detected by PCR amplification in the presence of Expand High Fidelity polymerase (Roche Diagnostics GmbH), 0.2 mM dNTPS, and 0.5 μM of each primer (forward: 5′[…]3′ (SEQ ID No. 10) and reverse: 5′[…]3′ (SEQ ID No. 11) for 35 cycles using the following PCR conditions: 1 min. at 95° C., 1 min. at 55° C., and 1 min. at […]

[2] = test system: A549 cells; test: MTT proliferation assay in transduced A549 cells with TGFβ-1; format: cell-based, human
Protocol: Additionally, to check whether TβRII-SE acts as a TGFβ-1 agonist, A459 cells either overexpressing TβRII-SE or not (untransduced cells or UT) were incubated in the presence of increasing concentrations of TGFβ-1 (FIG. 10B). […] However, in cells overexpressing TβRII-SE, proliferation started to decrease at a TGFβ-1 concentration of 0.1 nM compared to the same cell line without the addition of TGF-β1.
A549 cells were transduced with lentiviral vectors at a multiplicity of infection (MOI) of 50 in the presence of 8 μg/ml polybrene. Percentage of eGFP positive cells was measured in a FACscalibur (Becton Dikinson) cytometer.
Cells were harvested, counted, and inoculated at the appropriate concentrations into 96-well plates using a multichannel pipette. After 24 hr, TGF-β1 (10 ng/ml and 20 ng/ml; Sigma) was added to the culture wells, and cultures were incubated for 24 hr and 48 hr at 37° C., under an atmosphere of 5% CO2. MTT (3-(4,5-dimethylthiazol-2-yl)-2,5-diphenyltetrazolium bromide) (Sigma) solution at a concentration of 5 mg/ml was added to the media and the cells were further incubated for 4 hr. After replacing 100 μl of supernatant with 100 μl of DMSO, the absorbance of each well was determined at 540 nm with a SEAC (Sirio S) photometer (Italy). The percentage of cell survival was defined as the relative absorbance of treated versus untreated cells.

TβRII isoform A expression (RT-PCR, 582 bp band) ([1]; transduced hASC): downregulates TβRII isoform A expression
TβRII-A and B variants mRNA levels (qRT-PCR) ([1]; transduced hASC vs untransduced): decreased dramatically
B1: TβRII-SE: 80 amino acid soluble endogenous isoform of human TGF-β receptor II lacking the transmembrane domain, SEQ ID No. 2 (protein, listed as Homo sapiens)
chain: MGRGLLRGLWPLHIVLWTRIASTIPPHVQKSVNNDMIVTDNNGAVKFPQLCKFCDVRFSTCDNQKSCFSKVHYEGKKKAW
TGFβ-1 concentration at which proliferation started to decrease ([2]; cells overexpressing TβRII-SE, increasing TGFβ-1 concentrations (UT cells: 0.2 nM)): 0.1 nM
cell proliferation (MTT) ([2]; transduced A549 cells, 0.4 nM TGFβ-1 vs untreated): proliferate significantly less than the same cells not treated with TGFβ-1
